From patent US20240101668A1 (WUGEN, published 2024)

T1: huCLL1-K244-Avi-Tev-His (human, UniProt Q5QGZ9 65-265)
T1 construct: extracellular domain
T1 sequence (looked up): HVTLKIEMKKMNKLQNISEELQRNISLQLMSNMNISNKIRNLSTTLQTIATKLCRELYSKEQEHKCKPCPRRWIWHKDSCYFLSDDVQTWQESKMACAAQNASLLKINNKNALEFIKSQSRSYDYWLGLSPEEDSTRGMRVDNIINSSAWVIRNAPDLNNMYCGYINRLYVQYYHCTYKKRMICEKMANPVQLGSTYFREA

T2: huCLL1-Q244-Avi-Tev-His (human, UniProt Q5QGZ9 65-265)
T2 construct: extracellular domain; also called CLL-1 K244Q
T2 sequence (looked up): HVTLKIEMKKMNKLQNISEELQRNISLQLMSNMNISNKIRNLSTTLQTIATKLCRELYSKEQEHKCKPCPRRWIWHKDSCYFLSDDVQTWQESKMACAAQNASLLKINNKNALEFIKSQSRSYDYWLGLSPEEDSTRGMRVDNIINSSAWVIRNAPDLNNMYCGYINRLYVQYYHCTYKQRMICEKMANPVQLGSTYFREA


Columns and labels:
huCLL1-K244-Avi-Tev-His = biological target: T1, huCLL1-K244-Avi-Tev-His; experiment: BLI
huCLL1-Q244-Avi-Tev-His = biological target: T2, huCLL1-Q244-Avi-Tev-His; experiment: BLI

| binding result (huCLL1-K244-Avi-Tev-His) | binding result (huCLL1-Q244-Avi-Tev-His) | Binder |
| --- | --- | --- |
| binds | binds | Polypeptide No. 156 (scFv, V domains shown, scFv) VH: QVQLVQSGAEVKKPGASVKVSCKASGYTFTGYFIHWVRQAPGQGLEWMGWMNPNSGNTGYAQKFQGRVTMTRDTSTSTVYMELSSLRSEDTAVYYCARGDYADWFDPWGQGTLVTVSS VL: DIQMTQSPSSLSASVGDRVTITCRASQSISTWLAWYQQKPGKAPKLLIYDAFTLETGVPSRFSGSGSGTDFTLTISSLQPEDFATYYCQQSYSTPLTFGQGTKVEIKR |
| binds | binds | Polypeptide No. 157 (scFv, V domains shown, scFv) VH: QVQLVQSGAEVKKPGASVKVSCKASGYTFSDYYIHWVRQAPGQGLEWMGIINPSGGSTSYAQKFQGRVTMTRDTSTSTVYMELSSLRSEDTAVYYCARGMTDDAFDIWGQGTMVTVSS VL: DIQMTQSPSSLSASVGDRVTITCRASQGISSWLAWYQQKPGKAPKLLIYDASNLETGVPSRFSGSGSGTDFTLTISSLQPEDFATYYCQQTYAIPLTFGGGTKLEIKR |
| binds | binds | Polypeptide No. 167 (scFv, V domains shown, scFv) VH: QVQLVQSGAEVKKPGASVKVSCKASGYTFTSYYMHWVRQAPGQGLEWMGWINPNSGGTNYAQKFQGRVTMTRDTSTSTVYMELSSLRSEDTAVYYCARGTTGDDFDYWGQGTLVTVSS VL: DIQMTQSPSSLSASVGDRVTITCRASQDISTWLAWYQQKPGKAPKLLIYAASSLQSGVPSRFSGSGSGTDFTLTISSLQPEDFATYYCQQSYSIPPTFGPGTKVDIKR |
| binds | binds | Polypeptide No. 165 (scFv, V domains shown, scFv) VH: QVQLVQSGAEVKKPGASVKVSCKASGYTFTSYDINWVRQAPGQGLEWMGWMNPNSGNTGYAQKFQGRVTMTRDTSTSTVYMELSSLRSEDTAVYYCARLSSGYYPDYWGQGTLVTVSS VL: DIQMTQSPSSLSASVGDRVTITCRASQFIANWLAWYQQKPGKAPKLLIYDASSLESGVPSRFSGSGSGTDFTLTISSLQPEDFATYYCQQSYSTPLTFGGGTKVEIKR |
| binds | binds | Polypeptide No. 158 (scFv, V domains shown, scFv) VH: QVQLVQSGAEVKKPGASVKVSCKASGDSFSSYGISWVRQAPGQGLEWMGWINPKSGATTSAQKFQGRVTMTRDTSTSTVYMELSSLRSEDTAVYYCARSTAFDAFDIWGQGTTVTVSS VL: DIQMTQSPSSLSASVGDRVTITCRASQSISSWLAWYQQKPGKAPKLLIYDASNLETGVPSRFSGSGSGTDFTLTISSLQPEDFATYYCQQSYSTPLTFGQGTKVEIKR |
| binds | binds | Polypeptide No. 163 (scFv, V domains shown, scFv) VH: QVQLVQSGAEVKKPGASVKVSCKASGYTFTSYYMQWVRQAPGQGLEWMGWMNPNSGNTGYAQKFQGRVTMTRDTSTSTVYMELSSLRSEDTAVYYCARALYGDYLDIWGQGTTVTVSS VL: DIQMTQSPSSLSASVGDRVTITCRASQPIATWLAWYQQKPGKAPKLLIYDTSSLQSGVPSRFSGSGSGTDFTLTISSLQPEDFATYYCQQSYSLPLGFGQGTKVEIKR |
| binds | binds | Polypeptide No. 160 (scFv, V domains shown, scFv) VH: QVQLVQSGAEVKKPGASVKVSCKASGGTFTSYDINWVRQAPGQGLEWMGWINPHSGGTNYAQKFQGRVTMTRDTSTSTVYMELSSLRSEDTAVYYCARLVGGDAFDIWGQGTMVTVSS VL: DIQMTQSPSSLSASVGDRVTITCRASQSISSWLAWYQQKPGKAPKLLIYAASSLQGGVPSRFSGSGSGTDFTLTISSLQPEDFATYYCQQGYTTPLTFGPGTKVDIKR |
| binds | binds | Polypeptide No. 159 (scFv, V domains shown, scFv) VH: QVQLVQSGAEVKKPGASVKVSCKASGYSFTANYIHWVRQAPGQGLEWMGIINPSGGSTSYAQKFQGRVTMTRDTSTSTVYMELSSLRSEDTAVYYCARGNYGDYVEDWGQGTLVTVSS VL: DIQMTQSPSSLSASVGDRVTITCRASQSISSWLAWYQQKPGKAPKLLIYDASNLETGVPSRFSGSGSGTDFTLTISSLQPEDFATYYCQQSYGTPLTFGGGTKVEIKR |
| binds | binds | Polypeptide No. 168 (scFv, V domains shown, scFv) VH: QVQLVQSGAEVKKPGASVKVSCKASGYTFTNYGISWVRQAPGQGLEWMGWINPNSGGTNYAQKFQGRVTMTRDTSTSTVYMELSSLRSEDTAVYYCARVRSDDFFDYWGQGTLVTVSS VL: DIQMTQSPSSLSASVGDRVTITCRASQSVNHWLAWYQQKPGKAPKLLIYAASTLQSGVPSRFSGSGSGTDFTLTISSLQPEDFATYYCQQSYSLPLTFGGGTKVEIKR |
| binds | binds | Polypeptide No. 166 (scFv, V domains shown, scFv) VH: QVQLVQSGAEVKKPGASVKVSCKASGYTFESYDMNWVRQAPGQGLEWMGWIDPHSGDTNFAQKFQGRVTMTRDTSTSTVYMELSSLRSEDTAVYYCARADYGGNADYWGQGTLVTVSS VL: DIQMTQSPSSLSASVGDRVTITCRASQGISNWLAWYQQKPGKAPKLLIYDASNLETGVPSRFSGSGSGTDFTLTISSLQPEDFATYYCQQSYSTPYTFGQGTKVEIKR |
| binds | binds | Polypeptide No. 177 (scFv, V domains shown, scFv) VH: QVQLVQSGAEVKKPGASVKVSCKASGYTFTSYYMHWVRQAPGQGLEWMGWMNPNSGNTGYAQKFQGRVTMTRDTSTSTVYMELSSLRSEDTAVYYCARSTYSDSFDYWGQGTLVTVSS VL: DIQMTQSPSSLSASVGDRVTITCRASQSISNWLAWYQQKPGKAPKLLIYDASNLETGVPSRFSGSGSGTDFTLTISSLQPEDFATYYCQQSYSTPLTFGQGTKLEIKR |
| binds | binds | Polypeptide No. 161 (scFv, V domains shown, scFv) VH: QVQLVQSGAEVKKPGASVKVSCKASGYTFTSYDINWVRQAPGQGLEWMGMINPNSGGTSYAQKFQGRVTMTRDTSTSTVYMELSSLRSEDTAVYYCARELLGESFDYWGQGTLVTVSS VL: DIQMTQSPSSLSASVGDRVTITCRASQGISSYLAWYQQKPGKAPKLLIYGASILQSGVPSRFSGSGSGTDFTLTISSLQPEDFATYYCQQSYSTSFTFGPGTKVDIKR |
| binds | binds | Polypeptide No. 169 (scFv, V domains shown, scFv) VH: QVQLVQSGAEVKKPGASVKVSCKASGYTFTNDYIHWVRQAPGQGLEWMGWMSPNSGKTGFAQKFQGRVTMTRDTSTSTVYMELSSLRSEDTAVYYCAKDNSSGWYFDLWGRGTLVTVSS VL: DIQMTQSPSSLSASVGDRVTITCRVSQGISSYLAWYQQKPGKAPKLLIYDASNLETGVPSRFSGSGSGTDFTLTISSLQPEDFATYYCQQYDTLPITFGQGTRLEIKR |
| binds | binds | Polypeptide No. 162 (scFv, V domains shown, scFv) VH: QVQLVQSGAEVKKPGASVKVSCKASGYTFTNYGISWVRQAPGQGLEWMGWINPNSGGTNFAQKFQGRVTMTRDTSTSTVYMELSSLRSEDTAVYYCARGTNGDELDYWGQGTLVTVSS VL: not shown |
| binds | binds | Polypeptide No. 164 (scFv, V domains shown, scFv) VH: QVQLVQSGAEVKKPGASVKVSCKASGYTFTAHYIHWVRQAPGQGLEWMGIINPNGGRTTYAQKFQGRVTMTRDTSTSTVYMELSSLRSEDTAVYYCARDSDFWSGYYSDYYYGMDVWGQGTTVTVSS VL: DIQMTQSPSSLSASVGDRVTITCQASQDISNFLNWYQQKPGKAPKLLIYATSTLQSGVPSRFSGSGSGTDFTLTISSLQPEDFATYYCQQSYTTEWTFGQGTKVEIKR |
